Source: the nanobody polyreactivity screen of Harvey et al. (2022)

Experiment: yeast display, Sf9 membrane polyspecificity reagent, FACS + sequencing; frameworks hold sequencing errors
Outline: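 In a synthetic yeast display library (Saccharomyces cerevisiae BJ5465), nanobody expression was induced with galactose for 36–48 hours. FACS gates were set low and high (top ~1%) using anti-HA fluorescence for expression and streptavidin fluorescence for binding of the Sf9 membrane reagent. Each polyreactivity label is drawn from the gate of origin.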

| Sequence | polyreactivity (PSR sort gate) |
| --- | --- |
| QVQLVESGGGLDQAGGSLRLTCAASGFIIHRYAMAWYRQGPGTEMELVAAISRSGVSTNYADSVKGRFTISRDNPKNTVYLHMYSLKTEDTSVYYCASPYYSYQSYKYWGKGTQVTVSS | high polyreactivity |
| QVQLVESGGGLVQAGGSLCLSCAASGIFVYNAMGWYRPAPGKEREFVAAINKSGASTFYADSVKGRFTISRDTAKNTVYLQMNSLKPEDTAVYYCRERDYWGQGTQVTVSS | low polyreactivity |
| QVQLVESGGGLVQAGGSLRLSCAASGSIIKRNAMGWYRQAPGKERELVASISSGGSTKYADSVKGRFTISRDNAKNTVYLQKNSLKPEDTAVSYCAKRSSQTRRAYDYGGQGTQVTVSS | low polyreactivity |
| QVQLVESGGRLVQAGGSLRLTCAASGSTFSRYAMGWSRQAPGKERELVAAITGSGGNTYYADSVKGRFTISRDNAKNTVYLQMNSLKPEDTAVYYCAAEDYVGWYNFEYWGQGTQVTVSS | high polyreactivity |
| QVQLVESGGGLVQAGGSLSLSCAASGSTFSRYGMGGYRQAPGKERELVAAISYSGGGTYYADSVKGRFTISRDNAKNTVYLQMNSQKREDNAVYYCNVEYPKRANLSDYWGQGTQVTVSS | high polyreactivity |
| QVQLVESGGGLVQAGGSLRLSCAASGRTLYYNTMGWYRPAPGKERELVSSIRWDGGRTYYADSVKGRFTISRDNAKNTVYLQMNSLKPEDTAVYYCAKDGCYYYGTYAYDGCFDYWGQGTQVTVSS | low polyreactivity |
| HVQLVESGGGLVQAGGSLRLSCAASVFILSPNTMGWYRQAPGKERELVAAISSDVSTYADSVKGRFTISRDNAKNTVYLQMNSLKPEDTAVYYCNADDFGYASYEYWGQGTQVTVSS | low polyreactivity |
| QVKLVESGGGLVQAGGSLRLSCDASGFIFSLYAMGWYRQEHGKERDLVAAISKRGGSTNYADSVKGRFTISRDNAKNTVYLQMNSLKTEDTAVYYCAKARPVFLYDHWGQGTQLTVSS | high polyreactivity |
| QVQLVESGGGLVQAGGSLRLSCAASGITYYRNAMGWYRQAPGKERELVAAISWSGGRTYYADSVKGRFTISRDNAKNTVYLQMNSLKPEDTAVYYCNKYTHYYDYDYWGQGTQVTVSS | high polyreactivity |
| QVQLVESGGGLVQAGGSLRLSCAASGFTLAYNAMGWYRQAPGKESELVAAISKSSGSTYYADSVKGRFTISRDNSKNTFYLQMNSLKPEDTAVYYCAAEFYFNGVWYDYWGQGTQVTVSS | high polyreactivity |
| QVQLVESGGGLVQAGGSLRLSCAASGRIFAYYAMGWYRQAPGKESELVAAINWSGDGTNYADSVKGRFTISRDNAKNTVYLQMNSLKPVDTAVYYCAARLGHSVNPGGERWDVEYWGQGTQVTVSS | low polyreactivity |
| QVQLVESGGGLVQAGGSLRLSCAASGRICTRNAMGWYRQAPGKERELVAAISWRGGSTYYADSVKGRFTISRDNAKNTVYLQMNSLKPEDTAVYYCNAYFLSQYQSAYRDDYWGQGTQVTVSS | high polyreactivity |
| QVQLVESGGGLVQAGGSLRLSCAASGGTFHGYAMGWYRQAPGKERELVAAINWSGTSTYYADSVKGRFTISRDNAKNTVYLQMNRLKPEDTAVYYCAAAYFRGTYYYWGQGTQVTVSS | high polyreactivity |
| QVQLVESGGGLVQAGGSLRLSCAASGRIFDFYGMGWYTQAPGKERELVAAISRRSGSTYYADSVKGRFTISRDNAKNTDYLQMNSLKPEDTAVYYCAAEPSSYRYDYWGQGTQGTVSS | high polyreactivity |
| QVQLVESGGGLVQAGGSLRLSCAASGLTFTVYTMVWYRQAPGKERELVATNSWSDGRTYYADSVKGRFTISRDNAKNTVYLQMNSVKPEDTAVYYCATESITWYYFKHEYWGQGTQVTVSS | high polyreactivity |
| QVQLLESVGGLDQAGGSLRLSCAASGRTFKVYAMGWYRKATVKERELVAAISFSGGTTYYADSVKGRFTISRDNAKNTVYLQMNSLKQEDTAVSYCAAKRYGEYRARGYYYWGQGTQVTVSS | high polyreactivity |
| QVQLVESGGGLVQAGGSLRLSCAASGYTFFEYTMGWYRQAPGKVREFVAAISWSGGITYYADSVKGRFTISRDNAKNTVYLQMNSLKPEDTAVYYCNADIYSPTPIDYNYWGQGTQVTVSS | low polyreactivity |
| QVQLVESGGGLVQARGSLRLSCAASGFTFDQYTMGWYRQAPGKERELVAAISSSGGSTYYADSVKGRFTISRDNAKKTVYLQMNSLKPEDTAVYYCAARFLLTQRFSHDYWGQGTQVTVSS | low polyreactivity |
| QVQLVESGGGLVQAGGSLRLSCAASGNTFSDYAMGWYRQAPGKERELVAAISSSGVRTYYADSVKGRFTISRDNAKNTVYLQMNSLKPEDTAVYYCNAGYVRRYYPASGYGYWGQGTQVTVSS | high polyreactivity |
| QVQLVESGGGLVQAGGSLRLSCAPSGITFLANTMGGYRQAPGKERELVATITSSGGSTYYADSVKGRFTISRDNAKNTVYLQMNSLKPEDTAGYYCADSDLRYRGNYVYLPSEYWGQGSQVTVSS | low polyreactivity |
| QVQLVESAGGLVQAGGSLRLSSAASGLIFPLYEMGWYRQAPGKERELVAAINWRGGSTYYADSVKGRFTISRDNAKNTVYLQMNSLKPEDTAVYYCAAGYLHRDSYIYDYWGQGTQVTVSS | low polyreactivity |
| QVQLVESGGGLVQAGGSLRLRCAASGFTIGYNVMGLYRQAPGKERELVATISWNGARTYYADSVKGRFTISRDNAKNTVYLQMNSLKPEDTAVYYCAARRYYRGEYDYWGQGTQVTVSS | low polyreactivity |

| Sequence | polyreactivity (PSR sort gate) |
| --- | --- |
| QVQLVESGGGLVQAGGSLRLSCAASGYIFLYSTMGWYRQAPGKERELVAAITIGGGTYYADSVKGRFTISRDNAKNTVYLQMNSLKPEDTAVYYCNADYASYYRYSRPLEMNYWGQGTQVTVSS | low polyreactivity |
| QVQLVESGGGLVQAGGSLRISCAASGFTFRYYALGWYRQAPGKERELVAAILSSGGSTYYADSVKGRFTISRDNAKNTVYLQINSLKPVDTAVYYCNKVWDRRYDYWGQGTQVTVSS | high polyreactivity |
| QVHLVESGGGLVQAGGSLRLSCAASGYTIRRNAMGWYRQAPGKERELVAAITSGGSTDYADSVKGRFTISRDNAKNTVYLQMISLKPEDTAVYYCAADGIYRGAWSTVYESPGYDYWGQGTQVTVSS | low polyreactivity |
| QVQLVESGGGLVQAGGSLRLSCAASGITFFTYAMGWYRQAPGKEREFVATISYGGGSTYYADSVKGRFTISRDNAKNTVYLQMNSLKPEDTAVYYCNAEGYVPTYFQHYAYWGQGTQVTVSS | low polyreactivity |
| QVQLVESGGGLVQEGGSLRLRCAASGRIFYNYAMGCYRQAPGKERELVAAITGRGGRTYYADSVKGRFTISRDNAKNTVYLQINSLKPEDTAVYYCSVRAGTAGYPKYDYWGPGTQVTVSS | high polyreactivity |
| QVQLVESVGGLVQAGGSLRLSCAASGFTFVSNAMGWDRQEPGKERELVAAISTGGRTYYADSVKGRFTISRDNAKNTVYLQMNSLKTEDTAFYYCNARYGLRYVRYGEMDYWGQGTQVTVSS | high polyreactivity |
| QVQLVESAGGLVQAGGSLRLSCAASGRIFVYYAMGGYRKAPGKERELVAAISDSDDSSYYADSVKGRFTISRDNAKNTVYLQMNSLKPEDTAVYYCAAEGDIGGDDYYWGQGTQLTVSS | high polyreactivity |
| QVQLVESGGGLVQAGGSLRLSCAASGFILERYAMGWYRQAPGKERELVAAISSVGNTNYADSVKGRFTITRDNAKNTVYLQMNSLKPEDTAVYYCAAEGAFPIYDYWGQGTQVTVSS | low polyreactivity |
| QVQLVESGGGLVQAGGSLRLSCAASGSTFGFYAMGWYRQAPGKERELVAAISVSGGSTYYADSVKGRFTISRDNAKNTVYLQMNSLNPEDTGVYYCNKVWRPRYYWGLGTQVTVSS | high polyreactivity |
| QLQIVESGGGLVQAGGSLRLSCAASGSTFSYNAMGWYRQAPRKQRELVASISTSGGSTYYADSVKGRFTISRDNANNTVYLEMNSLKPEDTAVYYCNAPTSDIYSDFDSWGQGTQVTVSS | low polyreactivity |
| QVQLVESAGGLVQAGGSLRLSCAASGFTFSSYVMGWYRQAPGKARELVAAISSSGARTYYADSVKGRFTISRDNAKNTVYLQMNSLKPEDNADYYCAAENSPRPYDYWGQGTQVTVSS | high polyreactivity |
| QVQLVESGGGLVQAGGSLRLSCAASGSIFDIYAMGWYRQAPGKETELVAAISWNGGDTTYADSVKGRFTISRDNAKNTVYLQMNSLKPEDTAVYYCAADLGYWVADYYWGQGTQVTVSS | high polyreactivity |
| QVQLVESGGGLVQAGGSLRLSCAASGFIFDGNAMGWYRPAPGKERELVAAIRSGGRTNYADSVNGRFTISRDNAKNTVYLQMNSLKPEDTAVYYCAARSIYPYYYRRDNRYYYWGQGTQVTVSS | high polyreactivity |
| QVQLVESGGGLDPAGGSLRLSCAASGSTFQYNAKGWYRQAPGKERELVAAISGSGGSTYYADSVKGRFTISRDNAKNTVYLQMNSLKPEDTAVYYCNADVSALWWPEEWYNASEFDYWGQGTQVTVSS | low polyreactivity |
| QVQLVESGGGLVQAGGSLRLSCAASGRIFYRNAMGWYRQAPGKERELVAAITSGGSTYYADSVKGRFTISRDNAKNTVYLQMNSLKPEDTAVYYCAAAYQRWFNRRDYWGQGTQVTVSS | high polyreactivity |
| QVQLVESGGGLVQAGGSLRISCADSGSIFGYNAMGWYRQAPGKERELVAAISWSGGRTYYADSVKGRFTISRDNAKNTVSFQMNSLKPEDTAVYYCAAPSTGTYGSDYWGHGTQVTVSS | high polyreactivity |
| QVQLVESGGRLVQAGGSLRLSCAASGRTFSTNVMGRYRQAPGKVRELVAAITTSSSRTYYADSVKGRFTISRDNAKNTVYLQMNSLKPEDTAVYYCAAGIHGSWSFDYWGQGTQVTLSS | low polyreactivity |
| QVQLVESGGGLVQGGGSLRLSCAASGFIFRYYAMGWYRQAPGKERELVAAINGRGDSTYYADSVKGRFTISRDNAKNTVYLQMNSLKPEDTAVYYCAAQGYRYLSRDRYDYWGQGTQVTVSS | high polyreactivity |
| QVQLVESGGGLVQAGGSLRLSCAASGSIFQRNAMGSYRQAPGKERELVAAITYSGGGTYYADSVKGRFTISRDNAKNTVYLQMNSLKPEDTAVYYCNADGPSTPWVDYGYWGQGTQVTVSS | low polyreactivity |
| QVQLVESGGGLVQAGGSLRLSCAASGRTFGSYGMGWYRQAPGKERELVAAISRSVGSTYYADSVKGRFTISRDNAKITVYLQMNSLKPEDTAVYYCNTVDRRRYAGHYYWGQGTQVTVSS | high polyreactivity |
| QVQLVESGGGLVQAGGSLRLSCAASGFIFYFYAMGWYRQAPGKERELVAAISWSGGSTYYADSVKGRFTISRDNAKNTDYLQMNSLKPEDTAVYYCAAQSWSGDSTFWRYDYWGQGTQVTVSS | low polyreactivity |
